Measurements from patent US20200262877A1, “ION CHANNEL-BINDING PEPTIDES AND METHODS OF USE THEREOF” (priority 2017, published 2020).

How the values were obtained:
5HT3a = target: T1, 5HT3a (Homo sapiens, UniProt P46098); assay: Ion channel panel (IonWorks Barracuda): 5HT3a; assay type: cell-based
T1 construct: host or cells: HEK293 or CHO
T1 sequence (P46098 whole entry, looked up): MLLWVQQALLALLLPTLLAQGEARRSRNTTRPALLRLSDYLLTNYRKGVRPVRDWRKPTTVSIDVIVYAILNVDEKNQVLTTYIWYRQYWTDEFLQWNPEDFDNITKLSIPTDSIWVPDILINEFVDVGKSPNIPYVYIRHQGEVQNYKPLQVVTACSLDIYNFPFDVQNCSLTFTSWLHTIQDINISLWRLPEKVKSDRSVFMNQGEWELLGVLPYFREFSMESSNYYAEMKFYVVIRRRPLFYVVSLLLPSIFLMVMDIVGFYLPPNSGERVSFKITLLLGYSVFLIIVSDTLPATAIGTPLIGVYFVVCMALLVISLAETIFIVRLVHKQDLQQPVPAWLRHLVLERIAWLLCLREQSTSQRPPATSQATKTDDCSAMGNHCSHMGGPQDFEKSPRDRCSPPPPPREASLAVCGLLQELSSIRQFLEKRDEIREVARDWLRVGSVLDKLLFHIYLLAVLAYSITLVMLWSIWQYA
Summary of the method: (§1)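 Peptides were tested in duplicate at final 20 μM and 200 nM, with concentration set by amino acid analysis, in HEPES-buffered saline. They were applied for at least 5 min to HEK293 or CHO cells transfected with each channel. Currents were expressed as % inhibition, 1-(Ipeptide/Icontrol)×100, or % activation, Ipeptide/Icontrol×100, against a channel-matched reference compound.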

α3β4 = target: T2, α3β4 (Homo sapiens, UniProt P30926+P32297); assay: Ion channel panel (IonWorks Barracuda): α3β4; assay type: cell-based; details: 100% = no change, <100% = inhibition
T2 construct: host or cells: HEK293 or CHO
Summary of the method: as §1

α4β2 = target: T3, α4β2 (Homo sapiens, UniProt P17787+P43681); assay: Ion channel panel (IonWorks Barracuda): α4β2; assay type: cell-based; details: 100% = no change, <100% = inhibition
T3 construct: host or cells: HEK293 or CHO
Summary of the method: as §1

Cav2.1 = target: T4, Cav2.1 (Homo sapiens, UniProt O00555); assay: cell-based; details: 100% = no change, <100% = inhibition
T4 construct: host or cells: HEK293 or CHO
Summary of the method: as §1

Cav2.2 = target: T5, Cav2.2 (Homo sapiens, UniProt Q00975); assay: cell-based; details: 100% = no change, <100% = inhibition
T5 construct: host or cells: HEK293 or CHO
Summary of the method: as §1

Kv2.1 = target: T6, Kv2.1 (Homo sapiens, UniProt Q14721); assay: cell-based; details: 100% = no change, <100% = inhibition
T6 construct: host or cells: HEK293 or CHO
Summary of the method: as §1

GABA = assay: Ion channel panel (IonWorks Barracuda): GABA; assay type: cell-based; details: 100% = no change, <100% = inhibition
Summary of the method: as §1

Nav1.5 = Nav1.5 (Homo sapiens, UniProt Q14524); assay: in vitro; details: 100% = no change; for Activity of Nav1.5 with peptide, expressed as a percentage of the reference compound: peptide at 0.2 μM; for Activity of Nav1.5 with peptide (percentage of the reference compound): peptide at 20 μM
Nav1.5, sequence (Q14524 whole entry): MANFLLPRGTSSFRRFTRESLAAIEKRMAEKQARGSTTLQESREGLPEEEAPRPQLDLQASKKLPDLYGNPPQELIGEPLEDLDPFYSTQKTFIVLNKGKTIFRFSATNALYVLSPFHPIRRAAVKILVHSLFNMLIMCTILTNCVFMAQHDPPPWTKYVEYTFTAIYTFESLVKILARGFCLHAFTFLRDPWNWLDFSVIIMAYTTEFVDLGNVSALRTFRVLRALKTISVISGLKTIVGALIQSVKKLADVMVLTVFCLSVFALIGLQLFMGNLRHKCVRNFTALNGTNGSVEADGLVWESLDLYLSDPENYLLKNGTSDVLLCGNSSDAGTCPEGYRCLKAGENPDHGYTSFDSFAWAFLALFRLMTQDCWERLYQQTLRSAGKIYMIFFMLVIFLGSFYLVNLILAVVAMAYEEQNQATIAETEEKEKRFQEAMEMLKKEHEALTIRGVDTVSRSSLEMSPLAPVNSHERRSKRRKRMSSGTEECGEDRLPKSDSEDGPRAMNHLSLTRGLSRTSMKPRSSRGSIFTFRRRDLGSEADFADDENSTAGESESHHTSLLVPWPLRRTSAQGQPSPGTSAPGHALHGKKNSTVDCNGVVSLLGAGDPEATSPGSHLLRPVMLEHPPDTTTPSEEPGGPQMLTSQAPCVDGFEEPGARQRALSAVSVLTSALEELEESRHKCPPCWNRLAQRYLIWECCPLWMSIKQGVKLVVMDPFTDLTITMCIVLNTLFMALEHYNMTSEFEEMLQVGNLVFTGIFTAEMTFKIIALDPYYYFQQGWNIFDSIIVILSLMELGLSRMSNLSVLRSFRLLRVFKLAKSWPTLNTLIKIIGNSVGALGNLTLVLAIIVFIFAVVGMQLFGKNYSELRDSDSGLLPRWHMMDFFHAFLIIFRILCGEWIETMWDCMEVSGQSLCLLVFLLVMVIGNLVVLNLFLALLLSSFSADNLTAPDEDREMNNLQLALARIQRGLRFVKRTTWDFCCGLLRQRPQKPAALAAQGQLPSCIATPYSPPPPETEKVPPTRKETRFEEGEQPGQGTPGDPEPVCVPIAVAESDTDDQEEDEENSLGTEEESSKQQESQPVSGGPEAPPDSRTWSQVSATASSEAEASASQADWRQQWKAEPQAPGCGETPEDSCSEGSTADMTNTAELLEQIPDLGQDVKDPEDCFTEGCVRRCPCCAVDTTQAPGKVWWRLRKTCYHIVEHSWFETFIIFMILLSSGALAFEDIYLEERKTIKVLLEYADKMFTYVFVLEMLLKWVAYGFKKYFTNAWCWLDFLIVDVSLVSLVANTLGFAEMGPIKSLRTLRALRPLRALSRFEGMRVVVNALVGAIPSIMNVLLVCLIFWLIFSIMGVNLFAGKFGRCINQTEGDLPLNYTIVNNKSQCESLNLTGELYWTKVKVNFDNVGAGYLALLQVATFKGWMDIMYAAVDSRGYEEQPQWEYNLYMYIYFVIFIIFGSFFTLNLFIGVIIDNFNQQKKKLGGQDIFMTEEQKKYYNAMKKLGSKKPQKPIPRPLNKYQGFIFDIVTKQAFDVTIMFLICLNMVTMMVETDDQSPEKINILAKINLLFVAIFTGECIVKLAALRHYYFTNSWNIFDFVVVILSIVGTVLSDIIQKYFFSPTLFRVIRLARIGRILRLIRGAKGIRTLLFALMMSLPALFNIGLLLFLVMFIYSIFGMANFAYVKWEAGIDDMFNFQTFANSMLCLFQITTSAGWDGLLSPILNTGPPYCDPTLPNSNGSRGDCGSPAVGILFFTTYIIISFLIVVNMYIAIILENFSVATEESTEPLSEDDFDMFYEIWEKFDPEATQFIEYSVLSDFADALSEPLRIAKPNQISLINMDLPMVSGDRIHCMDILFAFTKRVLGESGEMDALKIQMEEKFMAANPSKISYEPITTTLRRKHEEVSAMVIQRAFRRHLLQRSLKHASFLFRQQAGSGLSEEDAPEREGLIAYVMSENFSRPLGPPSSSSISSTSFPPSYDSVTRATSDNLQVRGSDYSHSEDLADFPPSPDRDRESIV
Summary of the method: as §1

hERG = hERG (Homo sapiens, UniProt Q12809); assay: in vitro; details: 100% = no change, <100% = inhibition
Summary of the method: as §1

Kir2.1 = target: T7, Kir2.1 (Homo sapiens, UniProt P63252); assay: Ion channel panel (IonWorks Barracuda): Kir2.1; assay type: cell-based; details: 100% = no change, <100% = inhibition
T7 construct: host or cells: HEK293 or CHO
Summary of the method: as §1

Kv1.1 = target: T8, Kv1.1 (Homo sapiens, UniProt Q09470); assay: cell-based; assay type: cell-based; details: 100% = no change, <100% = inhibition
T8 construct: host or cells: HEK293 or CHO
T8 sequence (Q09470 whole entry): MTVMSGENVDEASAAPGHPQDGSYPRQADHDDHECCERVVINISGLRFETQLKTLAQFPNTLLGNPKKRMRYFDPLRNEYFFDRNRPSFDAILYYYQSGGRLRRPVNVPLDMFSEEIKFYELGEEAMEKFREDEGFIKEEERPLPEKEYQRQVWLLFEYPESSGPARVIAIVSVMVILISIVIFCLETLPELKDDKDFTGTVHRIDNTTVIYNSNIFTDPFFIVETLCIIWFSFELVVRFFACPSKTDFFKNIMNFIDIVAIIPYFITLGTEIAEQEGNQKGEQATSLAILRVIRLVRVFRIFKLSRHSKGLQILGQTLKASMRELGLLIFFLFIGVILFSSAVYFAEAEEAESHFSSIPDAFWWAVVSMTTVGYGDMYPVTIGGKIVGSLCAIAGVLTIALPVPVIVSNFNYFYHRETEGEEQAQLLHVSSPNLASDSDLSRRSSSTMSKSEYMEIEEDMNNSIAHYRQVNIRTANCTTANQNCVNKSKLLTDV
Summary of the method: as §1

Kv1.2 = target: T9, Kv1.2 (Homo sapiens, UniProt P16389); assay: cell-based; assay type: cell-based; details: 100% = no change, <100% = inhibition
T9 construct: host or cells: HEK293 or CHO
Summary of the method: as §1

Kv1.3 = target: T10, Kv1.3 (Homo sapiens, UniProt P22001); assay: cell-based; assay type: cell-based; details: 100% = no change, <100% = inhibition
T10 construct: host or cells: HEK293 or CHO
T10 sequence (P22001 whole entry): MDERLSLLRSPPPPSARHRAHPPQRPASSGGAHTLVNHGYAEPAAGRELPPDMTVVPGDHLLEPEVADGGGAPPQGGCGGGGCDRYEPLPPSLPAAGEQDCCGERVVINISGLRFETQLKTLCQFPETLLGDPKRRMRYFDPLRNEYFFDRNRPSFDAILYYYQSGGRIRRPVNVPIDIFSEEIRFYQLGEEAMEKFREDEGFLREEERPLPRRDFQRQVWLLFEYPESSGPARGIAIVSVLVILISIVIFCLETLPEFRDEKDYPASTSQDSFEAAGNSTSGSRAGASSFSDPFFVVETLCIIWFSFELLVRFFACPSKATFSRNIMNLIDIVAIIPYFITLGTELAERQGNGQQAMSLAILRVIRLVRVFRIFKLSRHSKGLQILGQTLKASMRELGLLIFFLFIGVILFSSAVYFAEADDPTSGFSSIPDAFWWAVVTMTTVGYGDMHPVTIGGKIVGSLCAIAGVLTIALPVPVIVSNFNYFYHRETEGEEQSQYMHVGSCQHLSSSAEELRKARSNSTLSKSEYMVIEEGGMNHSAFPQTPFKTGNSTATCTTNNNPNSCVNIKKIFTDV
Summary of the method: as §1

Nav1.7 = target: T11, Nav1.7 (Homo sapiens, UniProt Q15858); assay: cell-based; assay type: cell-based; details: 100% = no change; for Activity of Nav1.7 with peptide, expressed as a percentage of the reference compound: peptide at 0.2 μM; for Activity of Nav1.7 with peptide (percentage of the reference compound): peptide at 20 μM
T11 construct: host or cells: HEK293 or CHO
T11 sequence (Q15858 whole entry): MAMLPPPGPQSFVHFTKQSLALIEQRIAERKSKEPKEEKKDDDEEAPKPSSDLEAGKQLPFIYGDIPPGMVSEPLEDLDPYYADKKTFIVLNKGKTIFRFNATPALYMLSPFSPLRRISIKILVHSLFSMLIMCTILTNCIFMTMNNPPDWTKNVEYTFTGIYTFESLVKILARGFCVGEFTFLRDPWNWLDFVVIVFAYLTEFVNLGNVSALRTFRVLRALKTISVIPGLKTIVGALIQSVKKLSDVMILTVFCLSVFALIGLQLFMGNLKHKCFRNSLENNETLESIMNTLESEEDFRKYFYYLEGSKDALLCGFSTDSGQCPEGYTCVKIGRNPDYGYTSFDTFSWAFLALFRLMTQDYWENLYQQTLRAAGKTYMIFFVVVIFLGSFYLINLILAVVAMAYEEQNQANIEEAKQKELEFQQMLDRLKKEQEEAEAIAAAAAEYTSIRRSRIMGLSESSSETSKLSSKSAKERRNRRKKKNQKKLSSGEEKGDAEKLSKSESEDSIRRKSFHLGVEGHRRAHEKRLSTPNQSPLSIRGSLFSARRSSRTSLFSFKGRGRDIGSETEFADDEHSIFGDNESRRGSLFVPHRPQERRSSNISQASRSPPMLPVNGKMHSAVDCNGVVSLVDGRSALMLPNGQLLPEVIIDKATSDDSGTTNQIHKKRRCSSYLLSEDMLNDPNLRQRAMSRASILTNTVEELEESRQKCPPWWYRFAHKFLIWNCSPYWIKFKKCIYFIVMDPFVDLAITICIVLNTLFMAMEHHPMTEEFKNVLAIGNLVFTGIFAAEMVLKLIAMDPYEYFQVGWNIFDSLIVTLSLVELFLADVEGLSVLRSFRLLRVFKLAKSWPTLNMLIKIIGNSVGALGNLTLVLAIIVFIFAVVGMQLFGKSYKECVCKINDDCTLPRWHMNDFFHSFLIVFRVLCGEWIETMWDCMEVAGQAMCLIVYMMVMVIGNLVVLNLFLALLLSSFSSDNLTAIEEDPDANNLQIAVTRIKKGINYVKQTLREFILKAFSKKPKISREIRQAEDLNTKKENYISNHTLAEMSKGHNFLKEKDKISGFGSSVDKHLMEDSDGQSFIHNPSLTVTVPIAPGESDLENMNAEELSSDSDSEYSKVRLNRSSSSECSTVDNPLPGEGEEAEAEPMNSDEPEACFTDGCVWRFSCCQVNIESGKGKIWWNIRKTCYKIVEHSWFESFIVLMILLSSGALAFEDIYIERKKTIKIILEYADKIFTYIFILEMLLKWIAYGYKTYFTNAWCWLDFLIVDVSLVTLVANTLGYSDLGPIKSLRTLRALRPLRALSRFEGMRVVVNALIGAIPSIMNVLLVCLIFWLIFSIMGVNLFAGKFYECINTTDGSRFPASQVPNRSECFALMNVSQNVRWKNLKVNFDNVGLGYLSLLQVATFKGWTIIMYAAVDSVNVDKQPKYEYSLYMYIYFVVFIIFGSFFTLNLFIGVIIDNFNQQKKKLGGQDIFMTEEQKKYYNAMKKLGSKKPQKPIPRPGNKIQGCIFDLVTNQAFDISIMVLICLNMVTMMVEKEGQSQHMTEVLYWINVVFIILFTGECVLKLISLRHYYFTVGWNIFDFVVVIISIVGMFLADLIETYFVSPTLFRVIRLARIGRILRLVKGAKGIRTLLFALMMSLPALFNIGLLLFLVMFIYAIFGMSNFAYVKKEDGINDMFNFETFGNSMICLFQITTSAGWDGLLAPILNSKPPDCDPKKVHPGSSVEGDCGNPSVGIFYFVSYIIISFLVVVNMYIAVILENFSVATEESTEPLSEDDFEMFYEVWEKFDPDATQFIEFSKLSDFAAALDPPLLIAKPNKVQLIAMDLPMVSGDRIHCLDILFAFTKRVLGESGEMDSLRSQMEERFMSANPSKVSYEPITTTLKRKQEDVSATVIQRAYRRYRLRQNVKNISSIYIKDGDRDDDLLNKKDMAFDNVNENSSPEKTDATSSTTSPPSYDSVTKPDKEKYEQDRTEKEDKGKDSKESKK

NR2A = target: T12, NR2A (Homo sapiens, UniProt Q12879); assay: Ion channel panel (IonWorks Barracuda): NR2A; assay type: cell-based; details: 100% = no change, <100% = inhibition
T12 construct: host or cells: HEK293 or CHO
Summary of the method: as §1

NR2B = target: T13, NR2B (Homo sapiens, UniProt Q13224); assay: Ion channel panel (IonWorks Barracuda): NR2B; assay type: cell-based; details: 100% = no change, <100% = inhibition
T13 construct: host or cells: HEK293 or CHO
Summary of the method: as §1

TRPA1 = target: T14, TRPA1 (Homo sapiens, UniProt O75762); assay: Ion channel panel (IonWorks Barracuda): TRPA1; assay type: cell-based; details: 100% = no change, <100% = inhibition
T14 construct: host or cells: HEK293 or CHO
Summary of the method: as §1

TRPV1 = target: T15, TRPV1 (Homo sapiens, UniProt Q8NER1); assay: Ion channel panel (IonWorks Barracuda): TRPV1; assay type: cell-based; details: 100% = no change, <100% = inhibition
T15 construct: host or cells: HEK293 or CHO
Summary of the method: as §1

[1] = first of two Nav1.5 columns (probably TP1)
[2] = second of two Nav1.5 columns (probably TP2)
[3] = first of two Nav1.7 columns (probably TP1)
[4] = second of two Nav1.7 columns (probably TP2)

Substance: 11 (GSGDCLPHLKRCKENNDCCSKKCKRRGANPEKRCR) [compound 11]
- Activity of 5HT3a with peptide (percentage of the reference compound) (5HT3a): 85%
- Activity of 5HT3a with peptide, expressed as a percentage of the reference compound (5HT3a): 73%
- Activity of a3b4 with peptide, expressed as a percentage of the reference compound (α3β4; peptide at 0.2 μM): 95%
- Activity of a3b4 with peptide (percentage of the reference compound) (α3β4; peptide at 20 μM): 96%
- Activity of a4b2 with peptide, expressed as a percentage of the reference compound (α4β2; peptide at 0.2 μM): 111%
- Activity of a4b2 with peptide (percentage of the reference compound) (α4β2; peptide at 20 μM): 88%
- Activity of Cav2.1 with peptide, expressed as a percentage of the reference compound (Cav2.1; peptide at 0.2 μM): 104%
- Activity of Cav2.1 with peptide (percentage of the reference compound) (Cav2.1; peptide at 20 μM): 110%
- Activity of Cav2.2 with peptide, expressed as a percentage of the reference compound (Cav2.2; peptide at 0.2 μM): 100%
- Activity of Cav2.2 with peptide (percentage of the reference compound) (Cav2.2; peptide at 20 μM): 103%
- Activity of Kv2.1 with peptide, expressed as a percentage of the reference compound (Kv2.1; peptide at 0.2 μM): 121%
- Activity of Kv2.1 with peptide (percentage of the reference compound) (Kv2.1; peptide at 20 μM): 110%
- Activity of GABA with peptide, expressed as a percentage of the reference compound (GABA; peptide at 0.2 μM): 96%
- Activity of GABA with peptide (percentage of the reference compound) (GABA; peptide at 20 μM): 105%
- Activity of Nav1.5 with peptide, expressed as a percentage of the reference compound (Nav1.5; [1]): 107%
- Activity of Nav1.5 with peptide, expressed as a percentage of the reference compound (Nav1.5; [2]): 107%
- Activity of Nav1.5 with peptide (percentage of the reference compound) (Nav1.5; [1]): 113%
- Activity of Nav1.5 with peptide (percentage of the reference compound) (Nav1.5; [2]): 118%
- Activity of hERG with peptide, expressed as a percentage of the reference compound (hERG; peptide at 0.2 μM): 97%
- Activity of hERG with peptide (percentage of the reference compound) (hERG; peptide at 20 μM): 99%
- Activity of Kir2.1 with peptide, expressed as a percentage of the reference compound (Kir2.1; peptide at 0.2 μM): 107%
- Activity of Kir2.1 with peptide (percentage of the reference compound) (Kir2.1; peptide at 20 μM): 97%
- Activity of Kv1.1 with peptide, expressed as a percentage of the reference compound (Kv1.1; peptide at 0.2 μM): 99%
- Activity of Kv1.1 with peptide (percentage of the reference compound) (Kv1.1; peptide at 20 μM): 55%
- Activity of Kv1.2 with peptide, expressed as a percentage of the reference compound (Kv1.2; peptide at 0.2 μM): 103%
- Activity of Kv1.2 with peptide (percentage of the reference compound) (Kv1.2; peptide at 20 μM): 46%
- Activity of Kv1.3 with peptide, expressed as a percentage of the reference compound (Kv1.3; peptide at 0.2 μM): 101%
- Activity of Kv1.3 with peptide (percentage of the reference compound) (Kv1.3; peptide at 20 μM): 87%
- Activity of Nav1.7 with peptide, expressed as a percentage of the reference compound (Nav1.7; [3]): 107%
- Activity of Nav1.7 with peptide, expressed as a percentage of the reference compound (Nav1.7; [4]): 107%
- Activity of Nav1.7 with peptide (percentage of the reference compound) (Nav1.7; [3]): 96%
- Activity of Nav1.7 with peptide (percentage of the reference compound) (Nav1.7; [4]): 87%
- Activity of NR2A with peptide, expressed as a percentage of the reference compound (NR2A; peptide at 0.2 μM): 103%
- Activity of NR2A with peptide (percentage of the reference compound) (NR2A; peptide at 20 μM): 106%
- Activity of NR2B with peptide, expressed as a percentage of the reference compound (NR2B; peptide at 0.2 μM): 103%
- Activity of NR2B with peptide (percentage of the reference compound) (NR2B; peptide at 20 μM): 78%
- Activity of TRPA1 with peptide, expressed as a percentage of the reference compound (TRPA1; peptide at 0.2 μM): 100%
- Activity of TRPA1 with peptide (percentage of the reference compound) (TRPA1; peptide at 20 μM): 109%
- Activity of TRPV1 with peptide, expressed as a percentage of the reference compound (TRPV1; peptide at 0.2 μM): 100%
- Activity of TRPV1 with peptide (percentage of the reference compound) (TRPV1; peptide at 20 μM): 100%
